According to patent CN116724055A (CANTARGIA S R L, dated 2023):

T1: 细胞膜上的人IL1RAP (人, UniProt Q9NPH3 21-570)
T1 sequence (looked up): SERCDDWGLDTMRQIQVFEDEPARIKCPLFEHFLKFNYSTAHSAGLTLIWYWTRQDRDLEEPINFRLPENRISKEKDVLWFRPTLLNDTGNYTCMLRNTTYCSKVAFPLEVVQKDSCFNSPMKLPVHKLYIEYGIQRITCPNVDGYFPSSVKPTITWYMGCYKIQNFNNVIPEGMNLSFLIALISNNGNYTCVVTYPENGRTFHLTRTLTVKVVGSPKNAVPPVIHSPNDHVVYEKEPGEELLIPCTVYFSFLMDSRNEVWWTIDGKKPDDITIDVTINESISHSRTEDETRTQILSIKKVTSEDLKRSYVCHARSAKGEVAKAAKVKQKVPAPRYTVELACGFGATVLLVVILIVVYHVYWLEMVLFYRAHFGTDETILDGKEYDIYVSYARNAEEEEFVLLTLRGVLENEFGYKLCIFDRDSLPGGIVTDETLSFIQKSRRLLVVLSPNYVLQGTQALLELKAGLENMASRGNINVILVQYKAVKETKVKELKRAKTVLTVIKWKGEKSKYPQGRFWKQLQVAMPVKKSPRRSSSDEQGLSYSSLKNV

T2: 重组mfIL1RAP aa21-367 (食蟹猴 (Macaca fascicularis), UniProt A0A2K5X5J5 21-367)
T2 construct: also called 食蟹猴(cyno)IL1RAP
T2 sequence: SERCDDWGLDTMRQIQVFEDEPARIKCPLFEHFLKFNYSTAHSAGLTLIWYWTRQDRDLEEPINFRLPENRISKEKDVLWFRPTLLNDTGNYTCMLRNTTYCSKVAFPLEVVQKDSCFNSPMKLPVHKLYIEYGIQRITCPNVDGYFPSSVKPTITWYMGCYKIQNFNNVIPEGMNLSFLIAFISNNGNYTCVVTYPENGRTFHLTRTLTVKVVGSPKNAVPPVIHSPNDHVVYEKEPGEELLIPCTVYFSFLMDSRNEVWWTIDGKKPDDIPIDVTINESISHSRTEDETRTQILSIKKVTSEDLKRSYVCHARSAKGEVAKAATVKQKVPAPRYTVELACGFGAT

T3: 大鼠IL1RAP (褐家鼠 (Rattus norvegicus), UniProt Q63621 21-367, limits assumed)
T3 construct: also called rnIL1RAP
T3 sequence (looked up): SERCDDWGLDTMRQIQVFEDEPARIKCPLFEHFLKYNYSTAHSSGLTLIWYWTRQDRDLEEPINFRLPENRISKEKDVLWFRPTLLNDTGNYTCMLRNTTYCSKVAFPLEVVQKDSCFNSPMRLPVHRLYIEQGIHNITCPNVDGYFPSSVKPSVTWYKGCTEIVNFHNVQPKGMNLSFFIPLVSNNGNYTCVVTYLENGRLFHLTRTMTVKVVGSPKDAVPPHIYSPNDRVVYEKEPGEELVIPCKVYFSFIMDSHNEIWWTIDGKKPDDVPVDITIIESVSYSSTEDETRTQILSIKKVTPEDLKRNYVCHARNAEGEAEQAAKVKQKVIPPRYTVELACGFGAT

T4: 小鼠IL1RAP (小家鼠 (Mus musculus), UniProt Q61730 21-367, limits assumed)
T4 construct: also called mIL1RAP
T4 sequence (looked up): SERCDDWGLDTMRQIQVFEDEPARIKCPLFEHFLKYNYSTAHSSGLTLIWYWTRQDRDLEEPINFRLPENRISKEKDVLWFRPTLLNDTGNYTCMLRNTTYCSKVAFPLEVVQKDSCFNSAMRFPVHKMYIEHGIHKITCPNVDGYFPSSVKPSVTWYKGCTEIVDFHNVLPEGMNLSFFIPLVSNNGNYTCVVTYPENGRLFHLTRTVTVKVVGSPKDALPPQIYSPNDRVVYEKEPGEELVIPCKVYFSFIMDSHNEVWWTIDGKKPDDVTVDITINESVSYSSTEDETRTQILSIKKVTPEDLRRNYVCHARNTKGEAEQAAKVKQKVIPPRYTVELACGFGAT

B1: 嵌合48D2 (antibody, V domains shown)
VH: QEQLEESGGGLVKPGGSLTLTCTVSGPSLSHFDITWVRQAPGSGLEWIGTISPGVSTYYASWAKSRSTITSNTNLNTVTLKMTSLTAADTATYFCARGGVGSSWKAFDLWGPGTLVTISS
VL: APVLTQTPASVEVAVGGTVTIKCQASESISTALAWYQQKPGQPPKLLIYKASTLPSGVSSRFKGSGSGTEFALTISDLECDDAATYYCQQGFSSGNVHNAFGGGTEVVVK
notes: chimeric rabbit/human IgG1; also called ch48D2; 48D2嵌合(ch)兔/人抗人IL1RAP
B2: h48D2 VH5.GL:VL4 (antibody, human IgG1, kappa, L234A L235A, V domains shown)
VH: QEQLEESGGGLVKPGGTLSLTCTVSGPSLSHFDITWIRQPPGKGLEWIGTISPGVSTYYASWAKSRVTISVDTSLNTVSLKLSSVTAADTATYFCARGGVGSSWKAFDLWGPGTLVTISS
VL: ELVMTQSPSSVSASVGDRVTITCQASESISTALAWYQQKPGKAPKLLIYKASTLPSGVPSRFSGSGSGTDFTLTINSLQPEDFATYYCQQGFSSGNVHNAFGGGTKVEIKR
notes: also called 48D2变体VH5.GL:VL4; 人源化和去免疫化48D2变体VH5.GL:VL4
B3: h48D2 VH5:VL4 (antibody, human IgG1, kappa, L234A L235A, V domains shown)
VH: QEQLEESGGGLVKPGGTLSLTCTVSGPSLSHFDITWIRQAPGSGLEWIGTISPGVSTYYASWAKSRVTISVDTSLNTVSLKLSSVTAADTATYFCARGGVGSSWKAFDLWGPGTLVTISS
VL: ELVMTQSPSSVSASVGDRVTITCQASESISTALAWYQQKPGKAPKLLIYKASTLPSGVPSRFSGSGSGTDFTLTINSLQPEDFATYYCQQGFSSGNVHNAFGGGTKVEIKR
notes: also called 人源化48D2变体VH5:VL4
B4: h48D2 VH5:VL5 (antibody, human IgG1, kappa, L234A L235A)
heavy: not shown
light: APVLTQSPATLEASVGDRVTITCQASESISTALAWYQQKPGQPPKLLIYKASTLPSGVPSRFSGSGSGTEFTLTISDLESDDAATYYCQQGFSSGNVHNAFGGGTEVVVKRTVAAPSVFIFPPSDEQLKSGTASVVCLLNNFYPREAKVQWKVDNALQSGNSQESVTEQDSKDSTYSLSSTLTLSKADYEKHKVYACEVTHQGLSSPVTKSFNRGEC
B5: h48D2 VH5.GL:VL5.GL (antibody, human IgG1, kappa, L234A L235A)
heavy: not shown
light: DIQMTQSPSTLSASVGDRVTITCQASESISTALAWYQQKPGQPPKLLIYKASTLPSGVPSRFSGSGSGTEFTLTISDLESDDAATYYCQQGFSSGNVHNAFGGGTEVVVKRTVAAPSVFIFPPSDEQLKSGTASVVCLLNNFYPREAKVQWKVDNALQSGNSQESVTEQDSKDSTYSLSSTLTLSKADYEKHKVYACEVTHQGLSSPVTKSFNRGEC
notes: humanised and de-immunised variant

What was measured:
细胞膜上的人IL1RAP = target: T1, 细胞膜上的人IL1RAP; assay: cell-based or functional assay
重组mfIL1RAP aa21-367 [1] = target: T2, 重组mfIL1RAP aa21-367; assay: ELISA on coated IL1RAP orthologs
大鼠IL1RAP = target: T3, 大鼠IL1RAP; assay: ELISA on coated IL1RAP orthologs
小鼠IL1RAP = target: T4, 小鼠IL1RAP; assay: ELISA on coated IL1RAP orthologs
重组mfIL1RAP aa21-367 [2] = target: T2, 重组mfIL1RAP aa21-367; assay: binding ELISA, coated mfIL1RAP aa21-367

| Binder | binding result (大鼠IL1RAP) | binding result (小鼠IL1RAP) | binding result (重组mfIL1RAP aa21-367 [2]) | other results |
| --- | --- | --- | --- | --- |
| B1 | no binding (tested: 4000ng/ml) | no binding (tested: 4000ng/ml) | – | IC50, inhibition of IL-1α signalling, HEK-Blue assay (SEAP, OD 620nM) (细胞膜上的人IL1RAP): 1.92 nM; IC50, inhibition of IL-1β signalling, HEK-Blue assay (SEAP, OD 620nM) (细胞膜上的人IL1RAP): 0.7 nM; IC50, inhibition of IL-33 signalling, HEK-Blue assay (SEAP, OD 620nM) (细胞膜上的人IL1RAP): 2.92 nM; IC50, inhibition of IL-36α signalling, HEK-Blue assay (SEAP, OD 620nM) (细胞膜上的人IL1RAP): 0.0083 nM; IC50, inhibition of IL-36β signalling, HEK-Blue assay (SEAP, OD 620nM) (细胞膜上的人IL1RAP): 0.0081 nM; IC50, inhibition of IL-36γ signalling, HEK-Blue assay (SEAP, OD 620nM) (细胞膜上的人IL1RAP): 0.0111 nM; binding result (重组mfIL1RAP aa21-367 [1]): binds |
| B2 | no binding | no binding | – | – |
| B3 | – | – | binds | – |
| B4 | – | – | binds | – |
| B5 | no binding | no binding | – | – |
